Data on one protein can be found in paper PMC1262761, “Expression and cytosolic assembly of the S-layer fusion protein mSbsC-EGFP in eukaryotic cells” (Microbial Cell Factories, 2005).

The data set concerns the molecule itself. The experiment in a line: in vitro recrystallisation (self-assembly) seen by electron microscopy (REM, TEM); FPLC-purified mSbsC-EGFP, denatured in Gua-HCl, dialysed against dH2O over night; assembled structures negatively stained with 3% ammonium molybdate pH 7.2.

B1: mSbsC-EGFP fusion protein (mature S-layer protein SbsC, aa 31-1099, of Geobacillus stearothermophilus ATCC 12980 fused to EGFP), from E. coli (natural protein, UniProt O68840 31-1099, looked up)
chain: ATDVATVVSQAKAQMKEAYYTYSHTVTETGQFPDIKDVYAAYNKAKQAYANAVAVVNKAGGAKKDAYLADLQAIYETYVFKANPKSGEARVATYIDAYNYATKLDKMRQELKAAVDAKDLKKAEELYHKISYELKTRTVILDRVYGQSTRELLRSTFKADAQALRDRLIYDITVAMKAREAQDAVKAGNLDKAKAALDQVNQYVSKVTDAFKAELQKAAQDAKAAYEAALTPKVESVSAIDSTSFKVTFTKPVDKATAIPKNFSITLKGTETKLYPKSVEVSESGLTATVTLYDTLVDGKTYTVVTSGLKDTAGKEFETSTNEFTYNKPVPASITFNFNKLPEDSAVDLTKYVTVKDAAGNVIKSGFELEFTSSEKLTQGKFINTTGKKSVIVNATVKGTNVTTGNVILAVEDEKAAEVSELKLTKDNKEVVTLYANGNAFDKDGNQISSGTLTLTAKFKDQYGNELTGKVAGTDYTFESLNPEVLVVAPDGSVTPIVPGTALVKVKYGEVTKTIPVTVKANPVLETIAVDSTGVSVAKGQKATFKVTLKDQYGNKFTGNVNVTSDKTETATVSVSNSGIGQSEYTVTVNGVAEGSTTITIKSGTKEVKVPVNVVAGGPVANYQIKVLDDGKIDKSATESPANNDVQLKVYAVDANGNIVGDITNDVTITSEATDTNGVIVNASKSTANGDTVYVITDNGSKKVGKETLTVKLGTVTLGTVDVEVIDTTLKATVVTKKADLIELDAADNGDALAKLLANLDIKDQNGNPMVDSAATPNTNEKLQALKSVLSGIVSSDTSVIGSVSNVDNLKDDASISGLAVKKAGTVTLTLVFNEDSKIAPIAITVKAPAATQDGVTVTGLDLVPGVTGVGKTKFTATDKIKSGHKLYYAVDDSAVPAPAVGTTRNSTKFANEITVGTTEVAANAGQIITVIEVDSSDRVVGYKTFTVEAADLSVAADKTGFTATVTPTGGNQVTTGKTLLAVSDLANGHKLYAAAAGSSAAAAPVKGIAYTDTTVRTTYGTEVTSGTVEVDAQDGQHISIIEVDENGKVVGYKDYTITGIQIGTKSAS
notes: S-layer protein SbsC of Geobacillus stearothermophilus ATCC 12980, mature part, aa 31-1099 (without the 30 aa N-terminal secretion signal); an ATG initiation codon was introduced 5' of the reading frame by the primer; A Met from the introduced ATG precedes residue 31; A two-residue linker (Leu-Glu, from the XhoI site) stands between SbsC and the EGFP reading frame (720 bp, from the Clontech …)
Consider B1, for which the binding result was “binds”.
